Experimental data reported in publication PMC13376213, “Systematic discovery of motif-based interactions of the auxiliary domains of USP family deubiquitinases” (Nature Communications, 2026).

What follows are substances tested against CYLD CAP-Gly2 domain, GST-tagged (UniProt Q9NQC7) (assay: peptide SPOT array alanine scanning). Conditions: parent: est. 0; read off a plot.

| Substance | other: signal change (%) |
| --- | --- |
| FBXO46_(168-183) peptide A173 (replacement residue not printed) | -75 |
| FBXO46_(168-183) peptide D168A | 150 |
| FBXO46_(168-183) peptide E174A | -80 |
| FBXO46_(168-183) peptide E180A | -75 |
| FBXO46_(168-183) peptide L169A | -70 |
| FBXO46_(168-183) peptide L170A | -70 |
| FBXO46_(168-183) peptide M175A | -90 |
| FBXO46_(168-183) peptide Q181A | 0 |
| FBXO46_(168-183) peptide R182A | -85 |
| FBXO46_(168-183) peptide V172A | -75 |
| FBXO46_(168-183) peptide V176A | -85 |
| FBXO46_(168-183) peptide V179A | -80 |

Results, then the substance that gave them:

| other: signal change (%) | Substance |
| --- | --- |
| -80 | FBXO46_(168-183) peptide A177 (replacement residue not printed) |
| -55 | FBXO46_(168-183) peptide A183 (replacement residue not printed) |
| -65 | FBXO46_(168-183) peptide L178A |
| -70 | FBXO46_(168-183) peptide S171A |

Each substance was assayed against CYLD CAP-Gly1 domain, GST-tagged (UniProt Q9NQC7) (assay: peptide SPOT array alanine scanning). Conditions: parent: est. 0; read off a plot.

| Substance | other: signal change (%) |
| --- | --- |
| RBM25_(558-573) peptide (from UniProt P49756) A560 (replacement residue not printed) | -25 |
| RBM25_(558-573) peptide (from UniProt P49756) A569 (replacement residue not printed) | -60 |

What follows are substances tested against USP22 zf-UBP domain, tag cleaved (for FP) (human) (UniProt Q9UPT9) (assay: fluorescence polarisation; saturation or displacement not stated for this experiment; 50 mM phosphate buffer pH 7.4, room temperature). Conditions: not given.

| Substance | Kd [µM] |
| --- | --- |
| ATXN7_(84-105) peptide (from UniProt O15265 84-105) | 58 |

These substances were tested against FITC-GPR137B 348-362 peptide (human) (assay: fluorescence polarisation; saturation: serial dilution of the protein domain, 10 nM FITC-labelled peptide; 50 mM phosphate buffer pH 7.4 with DTT; room temperature; three technical replicates; quadratic fit). Conditions: not given.

| Substance | Kd [µM] |
| --- | --- |
| USP20 DUSP2 domain (from UniProt Q9Y2K6 1-914) (domain or fragment) | 5.14 |
| USP20 DUSP2 domain K833E/K835E (from UniProt Q9Y2K6 1-914) (domain or fragment) | 293 |
| USP20 DUSP2 domain N805A (from UniProt Q9Y2K6 1-914) (domain or fragment) | 140 |

Each substance was assayed against FITC-ORAI1 48-63 peptide (human) in the same assay as above. Conditions: not given.

| Substance | Kd [µM] |
| --- | --- |
| USP11 DUSP-UBL tandem domain (from UniProt P51784 1-963) (domain or fragment) | 294 |

Each substance was assayed against FITC-HIF1A 568-581 peptide (human) in the same assay as above. Conditions: not given.

| Substance | Kd [µM] |
| --- | --- |
| USP33 DUSP2 domain (from UniProt Q8TEY7 1-942) (domain or fragment) | 31.3 |
| USP33 DUSP2 domain K863E/K865E (from UniProt Q8TEY7 1-942) (domain or fragment) | 319 |
| USP33 DUSP2 domain N835A (from UniProt Q8TEY7 1-942) (domain or fragment) | 353 |

Each substance was assayed against FITC-ATXN7L1 36-57 peptide (human) in the same assay as above. Conditions: not given.

| Substance | Kd [µM] |
| --- | --- |
| USP22 zf-UBP domain (from UniProt Q9UPT9 1-525) (domain or fragment) | 1 |

These substances were tested against FITC-APBA2 327-338 peptide (human) in the same assay as above. Conditions: not given.

| Substance | Kd [µM] |
| --- | --- |
| USP20 zf-UBP domain (from UniProt Q9Y2K6 1-914) (domain or fragment) | 2.91 |
| USP20 zf-UBP domain E55K/D59R (from UniProt Q9Y2K6 1-914) (domain or fragment) | 388 |
| USP33 zf-UBP domain (from UniProt Q8TEY7 1-942) (domain or fragment) | 8.69 |

What follows are substances tested against USP33 zf-UBP domain, tag cleaved (for FP) (human) (UniProt Q8TEY7) (assay: fluorescence polarisation; displacement: unlabeled peptide titrated into the domain (at two-fold the KD of the FITC-labeled peptide) with 10 nM FITC-labeled peptide; 50 mM phosphate buffer pH 7.4, DTT, room temperature; estimated KD). Conditions: not given.

| Substance | Kd [µM] |
| --- | --- |
| APBA2_(327-338) peptide N334A (from UniProt Q99767 327-338) | 112 |
| APBA2_(327-338) peptide R330A (from UniProt Q99767 327-338) | > 500 |
| APBA2_(327-338) peptide, wild type, unlabeled | < 8 |

Each substance was assayed against USP33 DUSP2 domain, tag cleaved (for FP) (human) (UniProt Q8TEY7) in the same assay as above. Conditions: not given.

| Substance | Kd [µM] |
| --- | --- |
| HIF1A peptide hydroxylated at P564 | 7 |
| HIF1A_(564-581) peptide D571K (from UniProt Q16665 564-581) | 145 |
| HIF1A_(564-581) peptide, wild type, unlabeled (from UniProt Q16665 564-581) | 1.5 |

Now from value to substance:

| Kd [µM] | Substance |
| --- | --- |
| > 900 | HIF1A_(564-581) peptide F572A (from UniProt Q16665 564-581) |
| > 200 | HIF1A_(564-581) peptide L574A (from UniProt Q16665 564-581) |

These substances were tested against USP20 DUSP2 domain, tag cleaved (for FP) (human) in the same assay as above. Conditions: not given.

| Substance | Kd [µM] |
| --- | --- |
| HIF1A peptide hydroxylated at P564 | 26 |
| HIF1A_(564-581) peptide D571K (from UniProt Q16665 564-581) | 85 |
| HIF1A_(564-581) peptide L574A (from UniProt Q16665 564-581) | 89 |
| HIF1A_(564-581) peptide, wild type, unlabeled (from UniProt Q16665 564-581) | 19 |

Each substance was assayed against USP20 DUSP2 domain (human) (UniProt Q9Y2K6) (assay: fluorescence polarisation; displacement: serial dilution of the unlabelled peptide against the domain (at two-fold the KD of the FITC-labelled peptide) in complex with 10 nM FITC-labelled peptide; 50 mM phosphate buffer pH 7.4; room temperature; three technical replicates; sigmoidal dose-response fit). Conditions: not given.

| Substance | Kd [µM] |
| --- | --- |
| HIF1A 564-581 F572A peptide | 589 |

What follows are substances tested against USP33 DUSP2 domain (human) (UniProt Q8TEY7) in the same assay as above. Conditions: not given.

| Substance | Kd [µM] |
| --- | --- |
| HIF1A 564-581 F572A peptide | 930 |
